According to PMC2748320:

Molecular target: C-terminal mycHis-tagged Rp1L1 (1-361), expressed in COS7 cells (mouse) (UniProt Q8CGM2)
Assay: co-IP

UniProt Q8CGM2, sequence (Q8CGM2 1-361): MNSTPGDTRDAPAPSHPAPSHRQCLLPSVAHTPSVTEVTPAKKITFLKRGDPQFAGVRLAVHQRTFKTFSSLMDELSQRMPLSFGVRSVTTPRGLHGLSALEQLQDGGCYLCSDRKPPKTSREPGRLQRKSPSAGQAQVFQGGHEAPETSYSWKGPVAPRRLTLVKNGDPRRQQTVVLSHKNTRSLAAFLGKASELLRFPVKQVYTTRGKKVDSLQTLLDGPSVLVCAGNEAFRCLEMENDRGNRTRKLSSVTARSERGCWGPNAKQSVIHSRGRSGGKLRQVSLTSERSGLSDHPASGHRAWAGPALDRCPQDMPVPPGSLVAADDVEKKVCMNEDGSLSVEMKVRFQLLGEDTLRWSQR

- percent of FLAG-Rp1 co-immunoprecipitated: 12%
Substance: N-terminal FLAG-tagged full-length Rp1, P56716 1-2095
